Assay results: the supplement of paper PMC9233669
This sample holds only a part of the variants without activity.

Tests used:
biotinyl-Met-oxazolone = assay: self-aminoacylation, catalytic enhancement (BMO) (fold over background); higher = more active; k-Seq, kA / k0A0; sequences stand for … in GGGAAUGGAUCCACAUCUACGAAUUC…UUCACUGCAGACUUGACGAAGCUG
How it was run: (§1)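 Catalytic enhancement equals the median kA over the uncatalyzed rate, the latter read from the low-activity peak of a bimodal Gaussian fit. Values of kA came from fitting each sequence's fraction reacted to a pseudo-first-order model, with 1000 bootstraps. Reacted RNA was captured with streptavidin and quantified by triplicate qPCR and Illumina sequencing after 90 minutes at room temperature with 2–1250 μM biotinyl-aminoacyl-oxazolone and 0.43 μM mutagenized RNA pools bearing a 21-nt variable region.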

biotinyl-Phe-oxazolone = assay: self-aminoacylation, catalytic enhancement (BFO) (fold over background); higher = more active; k-Seq, kA / k0A0; sequences stand for … in GGGAAUGGAUCCACAUCUACGAAUUC…UUCACUGCAGACUUGACGAAGCUG
How it was run: as §1

biotinyl-Trp-oxazolone = assay: self-aminoacylation, catalytic enhancement (BWO) (fold over background); higher = more active; k-Seq, kA / k0A0; sequences stand for … in GGGAAUGGAUCCACAUCUACGAAUUC…UUCACUGCAGACUUGACGAAGCUG
How it was run: as §1

biotinyl-Leu-oxazolone = assay: self-aminoacylation, catalytic enhancement (BLO) (fold over background); higher = more active; k-Seq, kA / k0A0; sequences stand for … in GGGAAUGGAUCCACAUCUACGAAUUC…UUCACUGCAGACUUGACGAAGCUG
How it was run: as §1

biotinyl-Val-oxazolone = assay: self-aminoacylation, catalytic enhancement (BVO) (fold over background); higher = more active; k-Seq, kA / k0A0; sequences stand for … in GGGAAUGGAUCCACAUCUACGAAUUC…UUCACUGCAGACUUGACGAAGCUG
How it was run: as §1

## AACUUUGCUAAUAGUAGCAAG [Fam3.1 aminoacylation ribozyme variant]
biotinyl-Met-oxazolone
  self-aminoacylation: 2.2
biotinyl-Phe-oxazolone
  self-aminoacylation: 2.06
biotinyl-Trp-oxazolone
  self-aminoacylation: 2.42

## AAGCUGGCUAAUAGUCGCAAG [Fam3.1 aminoacylation ribozyme variant]
biotinyl-Leu-oxazolone
  self-aminoacylation: 2.68
biotinyl-Phe-oxazolone
  self-aminoacylation: 3.61
biotinyl-Trp-oxazolone
  self-aminoacylation: 2.08

## AAGCUUGCUAAUAGUCGCAUG [Fam3.1 aminoacylation ribozyme variant]
biotinyl-Leu-oxazolone
  self-aminoacylation: 2.07
biotinyl-Phe-oxazolone
  self-aminoacylation: 3.98

## AAGCUUGCUAUUAGUCGCAAG [Fam3.1 aminoacylation ribozyme variant]
biotinyl-Met-oxazolone
  self-aminoacylation: 2.23
biotinyl-Leu-oxazolone
  self-aminoacylation: 2.48
biotinyl-Phe-oxazolone
  self-aminoacylation: 2.62

## AAGGUCGCUAAUAGUCGCAAG [Fam3.1 aminoacylation ribozyme variant]
biotinyl-Phe-oxazolone
  self-aminoacylation: 2.86
biotinyl-Trp-oxazolone
  self-aminoacylation: 2.4
biotinyl-Val-oxazolone
  self-aminoacylation: 2.13

## AAGUCUGCUAAUAGUCGUAAG [Fam3.1 aminoacylation ribozyme variant]
biotinyl-Met-oxazolone
  self-aminoacylation: 2.5
biotinyl-Phe-oxazolone
  self-aminoacylation: 49.6
biotinyl-Trp-oxazolone
  self-aminoacylation: 9.94

## AAGUUAGCUAAUAGUCGCGAG [Fam3.1 aminoacylation ribozyme variant]
biotinyl-Leu-oxazolone
  self-aminoacylation: 2.09
biotinyl-Phe-oxazolone
  self-aminoacylation: 2.29
biotinyl-Trp-oxazolone
  self-aminoacylation: 2.24

## AAGUUCGCUAAUAGUCGCAAC [Fam3.1 aminoacylation ribozyme variant]
biotinyl-Met-oxazolone
  self-aminoacylation: 2.32
biotinyl-Phe-oxazolone
  self-aminoacylation: 2.12
biotinyl-Trp-oxazolone
  self-aminoacylation: 2.33

## ACACACUUCAAGCCAUCGGUC [Fam1B.1 aminoacylation ribozyme variant]
biotinyl-Leu-oxazolone
  self-aminoacylation: 2.11
biotinyl-Phe-oxazolone
  self-aminoacylation: 2.41

## ACACGCUUCAAGCAAUCGGUC [Fam1B.1 aminoacylation ribozyme variant]
biotinyl-Leu-oxazolone
  self-aminoacylation: 2.68
biotinyl-Phe-oxazolone
  self-aminoacylation: 63.7
biotinyl-Trp-oxazolone
  self-aminoacylation: 38.8

## ACUCACCUAGGUCAUCGGGUC [Fam2.2 aminoacylation ribozyme variant]
biotinyl-Met-oxazolone
  self-aminoacylation: 2.24
biotinyl-Phe-oxazolone
  self-aminoacylation: 7.01

## AGGGUUGCUAAUAGUCGCAAG [Fam3.1 aminoacylation ribozyme variant]
biotinyl-Met-oxazolone
  self-aminoacylation: 2.18
biotinyl-Phe-oxazolone
  self-aminoacylation: 4.28

## AGUCACCUAGGUCAUCUGGUG [Fam2.2 aminoacylation ribozyme variant]
biotinyl-Met-oxazolone
  self-aminoacylation: 2.31
biotinyl-Leu-oxazolone
  self-aminoacylation: 2.59
biotinyl-Phe-oxazolone
  self-aminoacylation: 15.2
biotinyl-Trp-oxazolone
  self-aminoacylation: 2.38

## AUAACCCUGGUCAUCGAGUAA [Fam2.1 aminoacylation ribozyme variant]
biotinyl-Met-oxazolone
  self-aminoacylation: 3.64
biotinyl-Leu-oxazolone
  self-aminoacylation: 3.46
biotinyl-Phe-oxazolone
  self-aminoacylation: 7.47
biotinyl-Trp-oxazolone
  self-aminoacylation: 2.47

## AUACACCUAGGUCAACGGGUG [Fam2.2 aminoacylation ribozyme variant]
biotinyl-Met-oxazolone
  self-aminoacylation: 2.09
biotinyl-Leu-oxazolone
  self-aminoacylation: 2.79
biotinyl-Phe-oxazolone
  self-aminoacylation: 6.06
biotinyl-Trp-oxazolone
  self-aminoacylation: 2.02

## AUACACCUAGGUCGUCGGGUG [Fam2.2 aminoacylation ribozyme variant]
biotinyl-Leu-oxazolone
  self-aminoacylation: 2.55
biotinyl-Phe-oxazolone
  self-aminoacylation: 6.55

## AUGACCCUGGUCAUCGAGGGA [Fam2.1 aminoacylation ribozyme variant]
biotinyl-Met-oxazolone
  self-aminoacylation: 3.65
biotinyl-Leu-oxazolone
  self-aminoacylation: 3.03
biotinyl-Phe-oxazolone
  self-aminoacylation: 2.82

## AUUAACCUAGGUCAUCUGGUG [Fam2.2 aminoacylation ribozyme variant]
biotinyl-Met-oxazolone
  self-aminoacylation: 2.59
biotinyl-Leu-oxazolone
  self-aminoacylation: 3.34
biotinyl-Phe-oxazolone
  self-aminoacylation: 13.6
biotinyl-Trp-oxazolone
  self-aminoacylation: 2.7

## AUUACCCAGGCCAUCGAGUGA [Fam2.1 aminoacylation ribozyme variant]
biotinyl-Met-oxazolone
  self-aminoacylation: 2.52
biotinyl-Leu-oxazolone
  self-aminoacylation: 2.69
biotinyl-Phe-oxazolone
  self-aminoacylation: 11

## AUUACCCUGGUAAUCGUGUGA [Fam2.1 aminoacylation ribozyme variant]
biotinyl-Met-oxazolone
  self-aminoacylation: 3.48
biotinyl-Leu-oxazolone
  self-aminoacylation: 3.58
biotinyl-Phe-oxazolone
  self-aminoacylation: 22.2
biotinyl-Trp-oxazolone
  self-aminoacylation: 4.1

## AUUACCCUGGUCAUUGAGUGG [Fam2.1 aminoacylation ribozyme variant]
biotinyl-Met-oxazolone
  self-aminoacylation: 2.54
biotinyl-Leu-oxazolone
  self-aminoacylation: 2.66
biotinyl-Phe-oxazolone
  self-aminoacylation: 2.08
biotinyl-Trp-oxazolone
  self-aminoacylation: 3.09

## AUUACCCUGGUCCUCGUGUGA [Fam2.1 aminoacylation ribozyme variant]
biotinyl-Met-oxazolone
  self-aminoacylation: 2.89
biotinyl-Leu-oxazolone
  self-aminoacylation: 2.88
biotinyl-Phe-oxazolone
  self-aminoacylation: 14
biotinyl-Trp-oxazolone
  self-aminoacylation: 2.73

## AUUACCCUGGUUAUCGAGUGU [Fam2.1 aminoacylation ribozyme variant]
biotinyl-Met-oxazolone
  self-aminoacylation: 2.66
biotinyl-Leu-oxazolone
  self-aminoacylation: 2.57
biotinyl-Phe-oxazolone
  self-aminoacylation: 3.12
biotinyl-Trp-oxazolone
  self-aminoacylation: 3.92

## AUUACUCUGGUCAUCGUGUGA [Fam2.1 aminoacylation ribozyme variant]
biotinyl-Met-oxazolone
  self-aminoacylation: 2.45
biotinyl-Leu-oxazolone
  self-aminoacylation: 2.81
biotinyl-Phe-oxazolone
  self-aminoacylation: 12.5
biotinyl-Trp-oxazolone
  self-aminoacylation: 3.34

## AUUCACAUAGGUCAUCGAGUG [Fam2.2 aminoacylation ribozyme variant]
biotinyl-Leu-oxazolone
  self-aminoacylation: 2.69
biotinyl-Phe-oxazolone
  self-aminoacylation: 3.08
biotinyl-Trp-oxazolone
  self-aminoacylation: 2.2

## AUUCACCGAGGUCAUCAGGUG [Fam2.2 aminoacylation ribozyme variant]
biotinyl-Leu-oxazolone
  self-aminoacylation: 2.03
biotinyl-Phe-oxazolone
  self-aminoacylation: 2.42

## AUUCACCUAAGUCAUCGGGUU [Fam2.2 aminoacylation ribozyme variant]
biotinyl-Met-oxazolone
  self-aminoacylation: 2.63
biotinyl-Leu-oxazolone
  self-aminoacylation: 2.55
biotinyl-Phe-oxazolone
  self-aminoacylation: 10.7

## AUUCACCUACGUCGUCGGGUG [Fam2.2 aminoacylation ribozyme variant]
biotinyl-Leu-oxazolone
  self-aminoacylation: 2.38
biotinyl-Phe-oxazolone
  self-aminoacylation: 11.5

## AUUCACCUAGAUCAGCGGGUG [Fam2.2 aminoacylation ribozyme variant]
biotinyl-Met-oxazolone
  self-aminoacylation: 2.39
biotinyl-Leu-oxazolone
  self-aminoacylation: 3.1
biotinyl-Phe-oxazolone
  self-aminoacylation: 11.7
biotinyl-Trp-oxazolone
  self-aminoacylation: 2.88

## AUUCACCUAGCUCAUCGGGGG [Fam2.2 aminoacylation ribozyme variant]
biotinyl-Met-oxazolone
  self-aminoacylation: 2.42

## AUUCACCUAGCUCAUCGGGUG [Fam2.2 aminoacylation ribozyme variant]
biotinyl-Leu-oxazolone
  self-aminoacylation: 2.05
biotinyl-Phe-oxazolone
  self-aminoacylation: 7.85
biotinyl-Val-oxazolone
  self-aminoacylation: 2.1

## AUUCACCUAGCUCCUCGGGUG [Fam2.2 aminoacylation ribozyme variant]
biotinyl-Leu-oxazolone
  self-aminoacylation: 2.24
biotinyl-Phe-oxazolone
  self-aminoacylation: 5.19

## AUUCACCUAGGUCAGCGGUUG [Fam2.2 aminoacylation ribozyme variant]
biotinyl-Met-oxazolone
  self-aminoacylation: 2.22
biotinyl-Phe-oxazolone
  self-aminoacylation: 6.39

## AUUCACCUAGGUCAGCGUGUG [Fam2.2 aminoacylation ribozyme variant]
biotinyl-Met-oxazolone
  self-aminoacylation: 2.16
biotinyl-Leu-oxazolone
  self-aminoacylation: 2.77
biotinyl-Phe-oxazolone
  self-aminoacylation: 11

## AUUCACCUAGGUCUUCAGGUG [Fam2.2 aminoacylation ribozyme variant]
biotinyl-Met-oxazolone
  self-aminoacylation: 2.04
biotinyl-Leu-oxazolone
  self-aminoacylation: 2.02
biotinyl-Phe-oxazolone
  self-aminoacylation: 6.96

## AUUCACCUCGGUCAUCGGCUG [Fam2.2 aminoacylation ribozyme variant]
biotinyl-Phe-oxazolone
  self-aminoacylation: 8.33
biotinyl-Trp-oxazolone
  self-aminoacylation: 2.02
biotinyl-Val-oxazolone
  self-aminoacylation: 2.65

## AUUCACCUGGGUCAUAGGGUG [Fam2.2 aminoacylation ribozyme variant]
biotinyl-Leu-oxazolone
  self-aminoacylation: 2.23
biotinyl-Phe-oxazolone
  self-aminoacylation: 6.22

## AUUCAGCUAGGUCAUCUGGUG [Fam2.2 aminoacylation ribozyme variant]
biotinyl-Met-oxazolone
  self-aminoacylation: 2.3
biotinyl-Leu-oxazolone
  self-aminoacylation: 2.35
biotinyl-Phe-oxazolone
  self-aminoacylation: 13.4
biotinyl-Trp-oxazolone
  self-aminoacylation: 2.25

## AUUUCCCUGGUCAUCGUGUGA [Fam2.1 aminoacylation ribozyme variant]
biotinyl-Met-oxazolone
  self-aminoacylation: 3.61
biotinyl-Leu-oxazolone
  self-aminoacylation: 3.65
biotinyl-Phe-oxazolone
  self-aminoacylation: 27.1
biotinyl-Trp-oxazolone
  self-aminoacylation: 4.8

## CAACGCUUCAAGCAAUCGGUC [Fam1B.1 aminoacylation ribozyme variant]
biotinyl-Leu-oxazolone
  self-aminoacylation: 2.08
biotinyl-Phe-oxazolone
  self-aminoacylation: 58.6
biotinyl-Trp-oxazolone
  self-aminoacylation: 33.7

## CCACACGUCAAGCAAUCGGGC [Fam1B.1 aminoacylation ribozyme variant]
biotinyl-Phe-oxazolone
  self-aminoacylation: 2.86
biotinyl-Val-oxazolone
  self-aminoacylation: 2.23

## CCACGCUUCAAGCAAUCGGCC [Fam1B.1 aminoacylation ribozyme variant]
biotinyl-Phe-oxazolone
  self-aminoacylation: 7.98
biotinyl-Trp-oxazolone
  self-aminoacylation: 8.15
biotinyl-Val-oxazolone
  self-aminoacylation: 2.77

## CCACUUCAAACAAUCGGUCGG [Fam1A.1 aminoacylation ribozyme variant]
biotinyl-Leu-oxazolone
  self-aminoacylation: 2.54
biotinyl-Phe-oxazolone
  self-aminoacylation: 99.5
biotinyl-Trp-oxazolone
  self-aminoacylation: 33.2

## CCACUUCAAACAAUCGGUCUC [Fam1A.1 aminoacylation ribozyme variant]
biotinyl-Met-oxazolone
  self-aminoacylation: 2.08
biotinyl-Leu-oxazolone
  self-aminoacylation: 2.13
biotinyl-Phe-oxazolone
  self-aminoacylation: 75.8
biotinyl-Trp-oxazolone
  self-aminoacylation: 42.2

## CCAGACUUCAAACAAUCGGUC [Fam1B.1 aminoacylation ribozyme variant]
biotinyl-Leu-oxazolone
  self-aminoacylation: 2.19
biotinyl-Phe-oxazolone
  self-aminoacylation: 85.8
biotinyl-Trp-oxazolone
  self-aminoacylation: 40.2

## CCCCACUUCAAGUAAUCGGUC [Fam1B.1 aminoacylation ribozyme variant]
biotinyl-Leu-oxazolone
  self-aminoacylation: 2.08
biotinyl-Phe-oxazolone
  self-aminoacylation: 15.4
biotinyl-Trp-oxazolone
  self-aminoacylation: 14.2

## CCGCACUUCAAGCAAUCGGUC [Fam1B.1 aminoacylation ribozyme variant]
biotinyl-Leu-oxazolone
  self-aminoacylation: 2.01
biotinyl-Phe-oxazolone
  self-aminoacylation: 61.6
biotinyl-Trp-oxazolone
  self-aminoacylation: 36.5

## CGACACUUCACGCAAUCGGUC [Fam1B.1 aminoacylation ribozyme variant]
biotinyl-Leu-oxazolone
  self-aminoacylation: 2.15
biotinyl-Phe-oxazolone
  self-aminoacylation: 4.13

## CGACUUCAAUCAAUCGGUCUG [Fam1A.1 aminoacylation ribozyme variant]
biotinyl-Leu-oxazolone
  self-aminoacylation: 2.21
biotinyl-Phe-oxazolone
  self-aminoacylation: 42.2
biotinyl-Trp-oxazolone
  self-aminoacylation: 24.3

## CGUCUUCAAACAAUCGGUCUG [Fam1A.1 aminoacylation ribozyme variant]
biotinyl-Leu-oxazolone
  self-aminoacylation: 2.22
biotinyl-Phe-oxazolone
  self-aminoacylation: 79
biotinyl-Trp-oxazolone
  self-aminoacylation: 33.5

## GAGUUUGCUAAUAGUCGCAGG [Fam3.1 aminoacylation ribozyme variant]
biotinyl-Leu-oxazolone
  self-aminoacylation: 2.11
biotinyl-Phe-oxazolone
  self-aminoacylation: 6.69
biotinyl-Trp-oxazolone
  self-aminoacylation: 3.34

## GUACUUCAAACAAUCGGUCGG [Fam1A.1 aminoacylation ribozyme variant]
biotinyl-Leu-oxazolone
  self-aminoacylation: 2.3
biotinyl-Phe-oxazolone
  self-aminoacylation: 37.8
biotinyl-Trp-oxazolone
  self-aminoacylation: 15.8

## GUACUUCAAUCAAUCGGUCUG [Fam1A.1 aminoacylation ribozyme variant]
biotinyl-Leu-oxazolone
  self-aminoacylation: 2.06
biotinyl-Phe-oxazolone
  self-aminoacylation: 21.9
biotinyl-Trp-oxazolone
  self-aminoacylation: 19.4

## GUUCACCUAGGUCAACGGGUG [Fam2.2 aminoacylation ribozyme variant]
biotinyl-Met-oxazolone
  self-aminoacylation: 2.11
biotinyl-Leu-oxazolone
  self-aminoacylation: 2.5
biotinyl-Phe-oxazolone
  self-aminoacylation: 17.5
biotinyl-Trp-oxazolone
  self-aminoacylation: 3.22
